Test results from patent US20120052070A1 (Novartis, published 2012).

Molecular target: T1, recombinant human DKK1 (human, UniProt O94907 32-266)
T1 sequence: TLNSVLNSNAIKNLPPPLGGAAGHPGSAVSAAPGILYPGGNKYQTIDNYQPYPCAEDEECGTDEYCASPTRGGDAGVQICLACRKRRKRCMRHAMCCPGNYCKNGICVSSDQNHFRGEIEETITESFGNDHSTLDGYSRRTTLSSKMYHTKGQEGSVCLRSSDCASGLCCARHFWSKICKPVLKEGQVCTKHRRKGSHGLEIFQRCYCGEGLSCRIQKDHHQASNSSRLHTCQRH
Experiment: cell-based or functional assay

B1: anti-DKK1 FAb MOR04910 (Fab, V domains shown)
VH: QVQLVESGGGLVQPGGSLRLSCAASGFTFSSYWMSWVRQAPGKGLEWVSGISYSGSNTHYADSVKGRFTISRDNSKNTLYLQMNSLRAEDTAVYYCARMGIDLDYWGQGTLVTVSS
VL: DIALTQPASVSGSPGQSITISCTGTSSDVGGFNYVSWYQQHPGKAPKLMIHDGSNRPSGVSNRFSGSKSGNTASLTISGLQAEDEADYYCQSWDVSPITAVFGGGTKLTVLG
- EC50, reactivation of DKK1 inhibited wnt signaling: < 1 nM

B2: anti-DKK1/4 antibody (antibody, V domains shown)
VH: B1 VH
VL: B1 VL
- apparent EC50, TCF/LEF luciferase reporter (SuperTopflash, Kremen) with 10 ng/ml rhDKK1 and Wnt3a conditioned medium: 0.16 nM
